Assays:
[1] = biological target: T1, His6-MBP-FXR1P (Homo sapiens, UniProt P51114-2 1-539); assay: EMSA; 250 nM protein; FA: 20 mM Tris pH 7.5, 75 mM KCl, 5 mM MgCl2, 1 uM BSA, 1 mM DTT, 100 ng/uL tRNA, ~5 nM RNA, RT 1 h; EMSA: 50 mM Tris pH 7.5, 145 mM KCl, 5 mM MgCl2, 1 uM BSA; settings: protein: recombinant, tags: N-terminal His6-MBP
[2] = biological target: T1, His6-MBP-FXR1P; assay: fluorescence anisotropy; 75 mM K+, 5 mM Mg2+; FA: 20 mM Tris pH 7.5, 75 mM KCl, 5 mM MgCl2, 1 uM BSA, 1 mM DTT, 100 ng/uL tRNA, ~5 nM RNA, RT 1 h; EMSA: 50 mM Tris pH 7.5, 145 mM KCl, 5 mM MgCl2, 1 uM BSA; settings: protein: recombinant; tags: N-terminal His6-MBP; label: 3' fluorescein; G-quadruplex forming
[3] = biological target: His6-MBP (UniProt P0AEX9 27-392); assay: fluorescence anisotropy; FA: 20 mM Tris pH 7.5, 75 mM KCl, 5 mM MgCl2, 1 uM BSA, 1 mM DTT, 100 ng/uL tRNA, ~5 nM RNA, RT 1 h; EMSA: 50 mM Tris pH 7.5, 145 mM KCl, 5 mM MgCl2, 1 uM BSA

T1 sequence (P51114 other isoform, or with tags, fused parts or gaps): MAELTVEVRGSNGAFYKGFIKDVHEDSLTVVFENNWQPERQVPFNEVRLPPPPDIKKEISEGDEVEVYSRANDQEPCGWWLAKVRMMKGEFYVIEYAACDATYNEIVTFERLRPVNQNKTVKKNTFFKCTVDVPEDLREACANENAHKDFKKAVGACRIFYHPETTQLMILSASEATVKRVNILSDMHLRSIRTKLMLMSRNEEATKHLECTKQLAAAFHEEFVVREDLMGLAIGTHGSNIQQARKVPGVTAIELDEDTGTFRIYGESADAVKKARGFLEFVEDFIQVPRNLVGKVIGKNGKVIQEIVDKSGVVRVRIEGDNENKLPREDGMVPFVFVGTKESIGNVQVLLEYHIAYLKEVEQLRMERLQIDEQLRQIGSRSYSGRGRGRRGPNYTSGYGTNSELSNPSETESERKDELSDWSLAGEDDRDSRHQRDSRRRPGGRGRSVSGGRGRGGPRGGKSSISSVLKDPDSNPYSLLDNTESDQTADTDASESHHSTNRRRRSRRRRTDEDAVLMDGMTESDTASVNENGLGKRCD

GCUAUCCAGAUUCUGAUU (ssRNA) [CR1]
binding result ([1]; label: 3' fluorescein, single strand, no predicted G-quadruplex): no binding

B1: ΔKC2 (structured_RNA)
RNA: GGGCGAAUUCGGGAUUCCGACCAGAAGGGGCUAAGGAAUGGUGGGACGAGCUAGCGGCUGGUAUGUGCGUCU
binding result ([1]; label: 3' fluorescein (FTSC, periodate-oxidized 3' end), loop-loop pseudoknot (kissing complex)): binds

GGGGGGGGGGGGGGGGGU (structured_RNA) [poly-G17U]
Kd [2]: 11.7 ± 1 nM
binding result [3]: no binding

— PMC7522082, “A simple procedure for bacterial expression and purification of the fragile X protein family”
